Experimental data reported in publication PMC7218409, “The protein architecture of the endocytic coat analyzed by FRET microscopy” (Molecular Systems Biology, 2020).

T1: Pan1, full length, with a C-terminal fluorescent tag (S. cerevisiae, UniProt P32521 1-1480)
T1 construct: Pan1, S. cerevisiae; gene tagged at its endogenous locus; Linker RTLQVD between protein and C-terminal tag; also called Pan1-mCherry; C-terminus of Pan1; source: S. cerevisiae, expressed from its endogenous locus, in live cells; not shown: GFP or mCherry, C-terminal, kept
T1 sequence (looked up): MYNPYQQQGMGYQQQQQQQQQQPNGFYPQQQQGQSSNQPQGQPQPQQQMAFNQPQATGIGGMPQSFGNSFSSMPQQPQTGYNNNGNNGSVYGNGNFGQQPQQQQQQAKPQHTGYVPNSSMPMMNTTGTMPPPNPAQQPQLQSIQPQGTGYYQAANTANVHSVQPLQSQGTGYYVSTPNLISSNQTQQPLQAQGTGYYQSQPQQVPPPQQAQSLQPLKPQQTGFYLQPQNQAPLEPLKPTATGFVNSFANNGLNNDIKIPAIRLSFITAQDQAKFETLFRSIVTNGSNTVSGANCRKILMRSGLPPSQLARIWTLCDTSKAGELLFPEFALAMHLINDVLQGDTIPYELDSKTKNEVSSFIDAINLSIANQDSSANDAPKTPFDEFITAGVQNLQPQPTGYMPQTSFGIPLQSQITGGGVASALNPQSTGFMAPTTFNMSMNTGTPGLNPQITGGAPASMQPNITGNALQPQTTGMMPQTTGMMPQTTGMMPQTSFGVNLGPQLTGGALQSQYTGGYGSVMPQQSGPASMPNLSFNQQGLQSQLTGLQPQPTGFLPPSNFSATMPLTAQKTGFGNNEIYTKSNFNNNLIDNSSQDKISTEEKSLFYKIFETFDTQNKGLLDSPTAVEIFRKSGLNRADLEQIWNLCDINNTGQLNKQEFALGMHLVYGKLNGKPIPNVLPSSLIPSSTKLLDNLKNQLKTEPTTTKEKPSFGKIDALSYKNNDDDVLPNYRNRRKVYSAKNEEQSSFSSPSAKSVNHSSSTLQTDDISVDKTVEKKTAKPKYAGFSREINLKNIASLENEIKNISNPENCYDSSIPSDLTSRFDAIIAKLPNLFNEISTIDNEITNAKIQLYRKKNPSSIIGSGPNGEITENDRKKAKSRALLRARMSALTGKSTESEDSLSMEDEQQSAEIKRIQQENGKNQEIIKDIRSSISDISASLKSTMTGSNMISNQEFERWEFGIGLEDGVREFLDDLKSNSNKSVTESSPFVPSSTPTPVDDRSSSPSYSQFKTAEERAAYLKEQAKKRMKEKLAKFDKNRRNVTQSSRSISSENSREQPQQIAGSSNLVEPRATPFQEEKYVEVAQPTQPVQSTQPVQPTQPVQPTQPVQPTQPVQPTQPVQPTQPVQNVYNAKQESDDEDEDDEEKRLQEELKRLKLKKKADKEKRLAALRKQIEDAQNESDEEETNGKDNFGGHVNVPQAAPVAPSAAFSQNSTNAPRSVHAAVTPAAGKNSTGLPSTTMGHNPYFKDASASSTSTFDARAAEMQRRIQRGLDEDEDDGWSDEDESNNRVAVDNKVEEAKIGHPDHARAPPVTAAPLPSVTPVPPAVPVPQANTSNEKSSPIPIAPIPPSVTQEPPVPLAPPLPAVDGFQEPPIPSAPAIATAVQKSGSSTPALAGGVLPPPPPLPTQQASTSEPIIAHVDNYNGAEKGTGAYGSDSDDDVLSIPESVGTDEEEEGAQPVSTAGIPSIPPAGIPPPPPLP

T2: Ede1-mCherry (S. cerevisiae, UniProt P34216 1-1381)
T2 construct: Ede1 (Eps15/R homolog), S. cerevisiae; gene tagged at its endogenous locus, no truncation told; Linker RTLQVD between protein and C-terminal tag; source: S. cerevisiae, expressed from its endogenous locus, in live cells; not shown: mCherry, C-terminal, kept
T2 sequence (looked up): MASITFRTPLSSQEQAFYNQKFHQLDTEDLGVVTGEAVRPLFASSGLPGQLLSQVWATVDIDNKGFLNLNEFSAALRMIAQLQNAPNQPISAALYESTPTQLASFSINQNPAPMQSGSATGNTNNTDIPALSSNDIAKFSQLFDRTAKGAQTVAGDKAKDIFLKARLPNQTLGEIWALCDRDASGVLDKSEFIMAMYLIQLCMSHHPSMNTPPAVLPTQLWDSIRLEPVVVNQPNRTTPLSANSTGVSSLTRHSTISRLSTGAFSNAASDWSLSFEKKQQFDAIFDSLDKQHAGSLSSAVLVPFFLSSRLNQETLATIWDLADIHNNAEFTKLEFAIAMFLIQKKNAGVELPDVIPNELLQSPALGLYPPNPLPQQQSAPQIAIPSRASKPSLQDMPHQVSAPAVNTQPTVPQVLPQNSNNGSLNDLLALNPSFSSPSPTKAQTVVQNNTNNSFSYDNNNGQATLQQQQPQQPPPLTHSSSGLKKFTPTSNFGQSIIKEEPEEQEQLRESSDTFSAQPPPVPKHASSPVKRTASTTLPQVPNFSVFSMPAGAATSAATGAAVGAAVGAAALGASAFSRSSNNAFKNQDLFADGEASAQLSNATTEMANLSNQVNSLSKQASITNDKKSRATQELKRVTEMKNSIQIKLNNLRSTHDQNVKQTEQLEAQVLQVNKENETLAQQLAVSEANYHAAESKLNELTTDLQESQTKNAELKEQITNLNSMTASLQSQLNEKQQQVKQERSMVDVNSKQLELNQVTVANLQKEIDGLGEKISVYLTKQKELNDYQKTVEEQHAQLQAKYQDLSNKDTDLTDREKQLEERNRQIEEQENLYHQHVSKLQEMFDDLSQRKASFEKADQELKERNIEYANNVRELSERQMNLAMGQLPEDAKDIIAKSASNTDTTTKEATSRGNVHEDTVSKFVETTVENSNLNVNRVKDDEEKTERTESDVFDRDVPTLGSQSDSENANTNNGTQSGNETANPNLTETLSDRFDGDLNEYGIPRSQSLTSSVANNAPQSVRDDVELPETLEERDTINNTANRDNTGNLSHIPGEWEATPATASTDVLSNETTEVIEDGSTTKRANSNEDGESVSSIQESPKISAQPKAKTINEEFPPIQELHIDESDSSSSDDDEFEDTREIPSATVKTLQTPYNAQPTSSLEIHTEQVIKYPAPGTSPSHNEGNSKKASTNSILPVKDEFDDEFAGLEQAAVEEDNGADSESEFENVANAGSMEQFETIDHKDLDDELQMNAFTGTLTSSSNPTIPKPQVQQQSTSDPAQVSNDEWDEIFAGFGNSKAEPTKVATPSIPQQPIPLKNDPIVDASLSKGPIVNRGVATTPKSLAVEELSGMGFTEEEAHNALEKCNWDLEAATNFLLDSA


Key:
[1] = target: T1, Pan1, full length, with a C-terminal …; assay: FRET or BRET; acceptor photobleaching in live yeast; inner cytoplasmic (nucleus and vacuole free) areas; GFP/mCherry or mTurquoise2/mNeonGreen pairs; details: partners not purified
Ede1-mCherry = target: T2, Ede1-mCherry; assay: as above; details: partners not purified

Row | FRET efficiency [1] | FRET efficiency (Ede1-mCherry) | Binder
1 | 4.5% | – | GFP-End3 (natural protein, S. cerevisiae, UniProt P39013 1-349, looked up, End3, S. cerevisiae; gene tagged at its endogenous locus, no truncation told; Linker GS(GGGGS)3ATENNS between N-terminal tag and protein; also called N-terminus of End3; source: S. cerevisiae, expressed from its endogenous locus, in live cells; not shown: GFP, N-terminal, kept) MPKLEQFEIKKYWQIFSGLKPIENKVNHDQVLPILYNSKLDSSVLNKIWFLADIDDDDNLDFEEFVICMRLIFDMVNKNISSVPDELPDWLIPGSKVNLIKERKKRKQIENADLPPKKEIKVDWYMSPDDLNQYEKIYNSCAKLTDGTITFNELSTKLSTKFFNISKTDLNKVWSLINPQNLPSIDRDPTFYFIHCLRQRNDLGAEIPASLPNSLAEVCNKKQLSYDLRSSQPPTKRKEEANEVDNLRDNGQNSSSDSSGSNVLSNEDSIKQKYASLTDDQVANMREQLEGLLNYKKSEKTQGGSKLSKRINIRSITDDLDNIEQQVEVLENYLNNKRHELQALQAEIN
2 | – | 2.5% | Syp1-GFP (natural protein, S. cerevisiae, UniProt P25623 1-870, looked up, Syp1 (FCHo1/2 homolog), S. cerevisiae; gene tagged at its endogenous locus, no truncation told; Linker RTLQVD between protein and C-terminal tag; source: S. cerevisiae, expressed from its endogenous locus, in live cells; not shown: GFP, C-terminal, kept) MTEQRTKYADSILTTKSPYEATETIRIRLSQVKLLNKDFYLLFKELANLKRNYAQQLRKIIAENEDITKILNAQMIESNVLTPQEMSAFRFNSLGELRNVWDTVIEELKSDLKSSTEYYNTLDQQVVRELKESVENNTSWRESKDLHSKLSKNAASIEHYSKNNENSSHLEEARRQWDQQSPYLFELFETIDYNRLDTLKNCMLRFQTSFSDYLLNTTKECETVMTKFLAFEPQSEIDRFAKDASQYNFQLSSSSKEVVPNNASPASATGARPVSVSNGAANTEREKKSPQKDKRKSAFGNIGHRLASASSSLTHNDLMNNEFSDSTNNSSLKSKKSSHTLRSKVGSIFGRNKTKNKRQQQSSSNSHIQASITETPNNSSTRVSSTATSSIYQKQRRPTYSSSKSNNWTPGEASDTPPLPPHATPKNVDAPVTADTPPAQTFTPSEVPPSTPQQSSPPTAKEPDSSNLPKTVPISISQPPLQPQSKTKPLPVEPASPSISLPTATVDNQPSGQVDSRPLHIRAPALPPSRKQNFIHNRDSQLYDSLPNHGSGATPTSSSLSSIPQERPVSTLSSQITGELRELNPQATGSSTSLVGQSLFQHSSLDTSQFGLNASIAEVLNASFKDGMLQNSQLIGEIALNYLPNSVMNSPLPIGINLRINNGAKFEKVILNQAFIERVAPEEFKVNPSFIDSRTLGAIKYSIKEPIAPIVIHPVWRFESHQASVVLTVKMSPSLPDEISQIVIEDLVVFVNIDGANATSALSKPQGSFSKEKKRITWRFKEPVVLTRNGEGQRLIARFITDGLAHESAKGVITKFTISETDNVALPHSGAGSGITLTCQELDENNPFGGEWLDVNTKRTLTTGNYHGLA
